Article PMC10119312, “Structural insights into RNase J that plays an essential role in Mycobacterium tuberculosis RNA metabolism” (Nature Communications, 2023)

What was measured:
[1] = target: T1, Mtb-RNase J D85A (catalytically inactive) (Mycobacterium tuberculosis H37Rv, UniProt P9WGZ9 1-558, D85A); test: EMSA; details: protein: recombinant; tags: N-terminal 6xHis-SUMO, removed by ULP1; chain copies: 2; label: 5'-FAM; single strand
T1 sequence: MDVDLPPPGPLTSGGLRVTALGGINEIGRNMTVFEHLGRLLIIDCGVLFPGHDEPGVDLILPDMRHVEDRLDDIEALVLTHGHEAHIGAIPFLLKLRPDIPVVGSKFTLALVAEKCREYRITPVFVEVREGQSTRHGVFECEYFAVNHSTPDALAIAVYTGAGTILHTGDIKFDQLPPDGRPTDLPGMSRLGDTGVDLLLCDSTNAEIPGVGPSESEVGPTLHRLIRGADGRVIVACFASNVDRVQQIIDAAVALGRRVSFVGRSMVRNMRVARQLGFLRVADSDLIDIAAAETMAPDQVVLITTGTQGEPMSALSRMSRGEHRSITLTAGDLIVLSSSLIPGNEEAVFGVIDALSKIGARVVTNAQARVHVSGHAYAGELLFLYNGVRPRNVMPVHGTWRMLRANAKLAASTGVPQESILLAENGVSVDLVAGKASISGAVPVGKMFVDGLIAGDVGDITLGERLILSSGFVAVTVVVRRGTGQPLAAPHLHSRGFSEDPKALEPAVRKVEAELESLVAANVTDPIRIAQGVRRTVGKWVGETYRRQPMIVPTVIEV

[2] = target: T1, Mtb-RNase J D85A (catalytically …); test: X-ray crystal structure; details: protein: recombinant; tags: N-terminal 6xHis-SUMO, removed by ULP1; chain copies: 2; single strand
[3] = target: the molecule itself; test: SEC
[4] = target: T2, Mtb-RNase J 1-375/D85A (Mycobacterium tuberculosis H37Rv, UniProt P9WGZ9 1-375, D85A); test: EMSA; 0.5 uM RNA; binding abolished; details: protein: recombinant; tags: N-terminal 6xHis-SUMO, removed by ULP1; single strand
T2 sequence: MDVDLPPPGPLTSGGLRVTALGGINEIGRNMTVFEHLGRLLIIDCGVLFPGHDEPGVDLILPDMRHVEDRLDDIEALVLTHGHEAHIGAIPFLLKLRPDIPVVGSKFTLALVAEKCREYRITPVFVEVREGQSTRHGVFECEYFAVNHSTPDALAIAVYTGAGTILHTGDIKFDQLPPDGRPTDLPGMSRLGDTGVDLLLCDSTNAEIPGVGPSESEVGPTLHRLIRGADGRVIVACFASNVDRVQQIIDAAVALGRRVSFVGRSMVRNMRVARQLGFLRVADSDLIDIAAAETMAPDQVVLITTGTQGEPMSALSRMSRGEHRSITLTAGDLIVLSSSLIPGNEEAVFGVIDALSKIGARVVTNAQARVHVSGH

[5] = target: the molecule itself; test: crystal structure

## AAAAAAAAA (ssRNA) [9-nt poly(A) RNA]
[1]
  binding result: binds

## AAAAAAA (ssRNA) [7-nt poly(A) ssRNA]
[2]
  binding result: binds

B1: Mtb-RNase J truncated mutant 1-470 (domain or fragment)
chain: MDVDLPPPGPLTSGGLRVTALGGINEIGRNMTVFEHLGRLLIIDCGVLFPGHDEPGVDLILPDMRHVEDRLDDIEALVLTHGHEDHIGAIPFLLKLRPDIPVVGSKFTLALVAEKCREYRITPVFVEVREGQSTRHGVFECEYFAVNHSTPDALAIAVYTGAGTILHTGDIKFDQLPPDGRPTDLPGMSRLGDTGVDLLLCDSTNAEIPGVGPSESEVGPTLHRLIRGADGRVIVACFASNVDRVQQIIDAAVALGRRVSFVGRSMVRNMRVARQLGFLRVADSDLIDIAAAETMAPDQVVLITTGTQGEPMSALSRMSRGEHRSITLTAGDLIVLSSSLIPGNEEAVFGVIDALSKIGARVVTNAQARVHVSGHAYAGELLFLYNGVRPRNVMPVHGTWRMLRANAKLAASTGVPQESILLAENGVSVDLVAGKASISGAVPVGKMFVDGLIAGDVGDITLGERLILSS
notes: also called C-terminal truncation (1–470); C-terminal domain-depletion protein (1-470); not shown: 6xHis-sumo, N-terminal, cleaved
[3]
  stoichiometry N: 2

B2: Mtb-RNase J truncated mutant 1-450 (domain or fragment)
chain: MDVDLPPPGPLTSGGLRVTALGGINEIGRNMTVFEHLGRLLIIDCGVLFPGHDEPGVDLILPDMRHVEDRLDDIEALVLTHGHEDHIGAIPFLLKLRPDIPVVGSKFTLALVAEKCREYRITPVFVEVREGQSTRHGVFECEYFAVNHSTPDALAIAVYTGAGTILHTGDIKFDQLPPDGRPTDLPGMSRLGDTGVDLLLCDSTNAEIPGVGPSESEVGPTLHRLIRGADGRVIVACFASNVDRVQQIIDAAVALGRRVSFVGRSMVRNMRVARQLGFLRVADSDLIDIAAAETMAPDQVVLITTGTQGEPMSALSRMSRGEHRSITLTAGDLIVLSSSLIPGNEEAVFGVIDALSKIGARVVTNAQARVHVSGHAYAGELLFLYNGVRPRNVMPVHGTWRMLRANAKLAASTGVPQESILLAENGVSVDLVAGKASISGAVPVGKMFVD
notes: also called truncated protein (1–450); not shown: 6xHis-sumo, N-terminal, cleaved
[3]
  stoichiometry N: 2

## UUCCGUUUAUUCAUACUUCA (ssRNA) [20-nt RNA (called poly(U) in legends; Methods print a mixed sequence)]
[4]
  binding result: no binding

B3: Mtb-RNase J (D85A), catalytically inactive mutant (enzyme)
chain: T1 sequence
notes: also called Mtb-RNase J D85A mutant; Mtb-RNase J/ssRNA (in complex with poly(A) ssRNA); not shown: 6xHis-sumo, N-terminal, cleaved
[5]
  stoichiometry N: 2
